Laboratory results taken from patent US20200317768A1 (published 2020).
Changes are numbered by the printed parent chain.

T1: cynomolgus monkey FcγRIIa2 extracellular domain with C-terminal His-tag (cynomolgus monkey)
T1 construct: also called cyno FcgRIIa2; cynoFcγRIIa2
T1 chain: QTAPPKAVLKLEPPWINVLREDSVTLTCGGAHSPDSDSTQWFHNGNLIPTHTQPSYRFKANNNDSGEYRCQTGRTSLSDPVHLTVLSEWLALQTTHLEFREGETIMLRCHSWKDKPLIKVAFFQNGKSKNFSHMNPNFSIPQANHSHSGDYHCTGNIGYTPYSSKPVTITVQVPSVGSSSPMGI

T2: cynomolgus monkey FcγRIIIaS extracellular domain with C-terminal His-tag (cynomolgus monkey, UniProt Q8SPW2 21-206 at identity 1.00))
T2 construct: also called cyno FcgRIIIaS; cynoFcγRIIIaS
T2 chain: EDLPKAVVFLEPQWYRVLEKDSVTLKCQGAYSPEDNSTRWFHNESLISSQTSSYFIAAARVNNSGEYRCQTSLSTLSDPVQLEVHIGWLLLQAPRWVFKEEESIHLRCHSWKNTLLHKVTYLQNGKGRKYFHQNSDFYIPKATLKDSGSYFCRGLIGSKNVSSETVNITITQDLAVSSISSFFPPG

T3: human FcγRIIaR extracellular domain with C-terminal His-tag (human, UniProt P12318 34-217)
T3 construct: also called human FcgRIIaR; FcγRIIa (type R)
T3 chain: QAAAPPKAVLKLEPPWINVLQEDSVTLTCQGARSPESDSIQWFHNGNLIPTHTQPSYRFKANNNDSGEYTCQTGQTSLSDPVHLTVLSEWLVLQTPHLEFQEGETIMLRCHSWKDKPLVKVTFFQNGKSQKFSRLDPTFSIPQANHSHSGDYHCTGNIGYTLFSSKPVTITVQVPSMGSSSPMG

T4: cynomolgus monkey FcγRIIa1 extracellular domain with C-terminal His-tag (cynomolgus monkey)
T4 construct: also called cyno FcgRIIa1; cynoFcγRIIa1
T4 chain: T1 chain with T95P, A121T, K127I, S128A, N130K, N135D, Q142R

T5: human FcγRIIb extracellular domain with C-terminal His-tag (human, UniProt P31994 43-217)
T5 construct: also called human FcgRIIb
T5 sequence: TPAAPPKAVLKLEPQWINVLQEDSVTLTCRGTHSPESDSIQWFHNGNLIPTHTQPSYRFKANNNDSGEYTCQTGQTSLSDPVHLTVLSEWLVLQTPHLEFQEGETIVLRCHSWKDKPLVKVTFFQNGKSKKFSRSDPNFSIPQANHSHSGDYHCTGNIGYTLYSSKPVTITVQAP

T6: cynomolgus monkey FcγRIIb extracellular domain with C-terminal His-tag (cynomolgus monkey)
T6 construct: also called cyno FcgRIIb; cynoFcγRIIb
T6 chain: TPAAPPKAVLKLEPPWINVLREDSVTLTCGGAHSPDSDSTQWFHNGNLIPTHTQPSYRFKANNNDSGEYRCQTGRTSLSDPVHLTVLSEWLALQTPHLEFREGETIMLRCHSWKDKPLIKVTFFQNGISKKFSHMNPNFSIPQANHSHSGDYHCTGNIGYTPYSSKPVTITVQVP

T7: human FcγRIIaH extracellular domain with C-terminal His-tag (human, UniProt P12318 34-217)
T7 construct: also called human FcgRIIaH; FcγRIIa (type H)
T7 sequence: T3 chain with R134H

B1: M103205H795-MY389/M103202L889-SK1 (antibody, human IgG1, kappa)
heavy: QVTLKESGPVLVKPTETLTLTCTVSGIDLSHDDISWVRQAPGKGLEWVGIISYAGSTYYASWAKGRLTISKDTSKNQVVLTMTNMDPVDTATYYCARGVPAYSHGGDLWGQGTLVTVSSASTKGPSVFPLAPSSKSTSGGTAALGCLVKDYFPEPVTVSWNSGALTSGVHTFPAVLQSSGLYSLSSVVTVPSSSLGTQTYICNVNHKPSNTKVDKKVEPKSCDKTHTCPPCPAPELLTGPLVFLFPPKPKDTLMISRTPEVTCVVVDVSDEDPEVKFNWYVDGVEVHNAKTKPREEQYNSTYRVVSVLTVLHQDWLNGKEYKCKVSNKALPKPIEKTISKAKGQPREPQVYTLPPSREEMTKNQVSLTCLVKGFYPSDIAVEWESNGQPENNYKTTPPVLDSDGSFFLYSKLTVDKSRWQQGNVFSCSVMHEALHNHYTQKSLSLSP
light: DIVMTQSPATLSLSPGERATLSCTSSQSVYHANWLSWFQQKPGQPPKLLIYWASTLAYGVPSRFSGSGSGTDFTLTISSLQPEDAATYYCAGGYGGGRYAFGQGTKVEIKRTVAAPSVFIFPPSDEQLKSGTASVVCLLNNFYPREAKVQWKVDNALQSGNSQESVTEQDSKDSTYSLSSTLTLSKADYEKHKVYACEVTHQGLSSPVTKSFNRGEC
notes: Substitutions introduced into M103205H795-SG1, expressed with M103202L889-SK1 as light chain; EU numbering
B2: M103205H795-MY521/M103202L889-SK1 (antibody, human IgG1, kappa)
heavy: B1 heavy with P234D, L241S, Q297L
light: B1 light
notes: as for B1
B3: M103205H795-MY520/M103202L889-SK1 (antibody, human IgG1, kappa)
heavy: B1 heavy with P234D, L241V, Q297L
light: B1 light
notes: as for B1
B4: M103205H795-MY526/M103202L889-SK1 (antibody, human IgG1, kappa)
heavy: B1 heavy with A233T, L241V, Q297L
light: B1 light
notes: as for B1
B5: M103205H795-MY516/M103202L889-SK1 (antibody, human IgG1, kappa)
heavy: B1 heavy with L241V, Q297L, S300L
light: B1 light
notes: as for B1
B6: M103205H795-MY400/M103202L889-SK1 (antibody, human IgG1, kappa)
heavy: B1 heavy with L241S, P333E
light: B1 light
notes: as for B1
B7: M103205H795-MY515/M103202L889-SK1 (antibody, human IgG1, kappa)
heavy: B1 heavy with L241S, Q297L, S300L
light: B1 light
notes: as for B1
B8: M103205H795-MY527/M103202L889-SK1 (antibody, human IgG1, kappa)
heavy: B1 heavy with A233T, L241S, Q297L
light: B1 light
notes: as for B1
B9: M103205H795-MY525/M103202L889-SK1 (antibody, human IgG1, kappa)
heavy: B1 heavy with A233T, L241V
light: B1 light
notes: as for B1
B10: M103205H795-MY523/M103202L889-SK1 (antibody, human IgG1, kappa)
heavy: B1 heavy with A233G, L241V, Q297L
light: B1 light
notes: as for B1
B11: M103205H795-MY522/M103202L889-SK1 (antibody, human IgG1, kappa)
heavy: B1 heavy with A233G, L241V
light: B1 light
notes: as for B1
B12: M103205H795-MY392/M103202L889-SK1 (antibody, human IgG1, kappa)
heavy: B1 heavy with L241S, S300L
light: B1 light
notes: as for B1
B13: M103205H795-MY524/M103202L889-SK1 (antibody, human IgG1, kappa)
heavy: B1 heavy with A233G, L241S, Q297L
light: B1 light
notes: as for B1
B14: M103205H795-MY514/M103202L889-SK1 (antibody, human IgG1, kappa)
heavy: B1 heavy with L241V, S300L
light: B1 light
notes: as for B1

Molecular target: T1, cynomolgus monkey FcγRIIa2 …
Experiment: SPR (BIACORE); KD of SG1 / KD of variant;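 also: relative to parent M103205H795-SG1 carrying the SG1 human heavy chain constant region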

KD fold (SG1 = 1) | Binder
3.2 fold | B1
1.5 fold | B2
2.2 fold | B3
4.3 fold | B4
3.9 fold | B5
2.3 fold | B6
3.2 fold | B7
3.5 fold | B8
4.6 fold | B9
3.9 fold | B10
4.3 fold | B11
2.2 fold | B12
4.6 fold | B13
3.2 fold | B14

Molecular target: T2, cynomolgus monkey FcγRIIIaS …
Experiment: SPR (BIACORE); KD of SG1 / KD of variant;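 also: relative to parent M103205H795-SG1 carrying the SG1 human heavy chain constant region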

KD fold (SG1 = 1) | Binder
0.24 fold | B1
0.16 fold | B2
0.18 fold | B3
0.23 fold | B4
0.12 fold | B5
0.15 fold | B6
0.09 fold | B7
0.24 fold | B8
0.26 fold | B9
0.17 fold | B10
0.19 fold | B11
0.09 fold | B12
0.18 fold | B13
0.08 fold | B14

Molecular target: T3, human FcγRIIaR extracellular domain …
Experiment: SPR (BIACORE); KD of SG1 / KD of variant;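 also: relative to parent M103205H795-SG1 carrying the SG1 human heavy chain constant region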

KD fold (SG1 = 1) | Binder
5.8 fold | B1
3.3 fold | B2
3.3 fold | B3
5.2 fold | B4
12.9 fold | B5
1.5 fold | B6
4.2 fold | B7
3.8 fold | B8
6.5 fold | B9
3.7 fold | B10
6.5 fold | B11
2.7 fold | B12
3.9 fold | B13
6.5 fold | B14

Molecular target: T4, cynomolgus monkey FcγRIIa1 …
Experiment: SPR (BIACORE); KD of SG1 / KD of variant;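 also: relative to parent M103205H795-SG1 carrying the SG1 human heavy chain constant region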

KD fold (SG1 = 1) | Binder
1.6 fold | B1
1.3 fold | B2
1.3 fold | B3
2.5 fold | B4
21.3 fold | B5
1.8 fold | B6
22.9 fold | B7
2.9 fold | B8
2 fold | B9
2.3 fold | B10
1.9 fold | B11
10.7 fold | B12
3.2 fold | B13
12.3 fold | B14

Molecular target: T8, human FcγRIIIaV extracellular domain with C-terminal His-tag (human, UniProt P08637 17-208)
T8 construct: also called human FcgRIIIaV
Experiment: SPR (BIACORE); KD of SG1 / KD of variant

T8 sequence (P08637 17-208 F176V): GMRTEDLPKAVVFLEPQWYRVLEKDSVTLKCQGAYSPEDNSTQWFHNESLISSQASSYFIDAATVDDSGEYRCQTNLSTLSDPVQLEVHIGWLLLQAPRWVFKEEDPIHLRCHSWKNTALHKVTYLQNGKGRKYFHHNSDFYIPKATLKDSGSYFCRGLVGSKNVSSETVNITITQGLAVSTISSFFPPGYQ

KD fold (SG1 = 1) | Binder
0.23 fold | B1
0.16 fold | B2
0.29 fold | B3
0.19 fold | B4
0.12 fold | B5
0.1 fold | B6
0.09 fold | B7
0.18 fold | B8
0.19 fold | B9
0.15 fold | B10
0.14 fold | B11
0.09 fold | B12
0.18 fold | B13
0.08 fold | B14

Molecular target: T5, human FcγRIIb extracellular domain with …
Experiment: SPR (BIACORE); KD of SG1 / KD of variant

KD fold (SG1 = 1) | Binder
4.2 fold | B1
3.2 fold | B2
3.5 fold | B3
3.8 fold | B4
9 fold | B5
1.8 fold | B6
3.8 fold | B7
3.5 fold | B8
3.8 fold | B9
4.2 fold | B10
4.2 fold | B11
2.7 fold | B12
4.5 fold | B13
6.7 fold | B14

Molecular target: T6, cynomolgus monkey FcγRIIb extracellular …
Experiment: SPR (BIACORE); KD of SG1 / KD of variant

KD fold (SG1 = 1) | Binder
2.6 fold | B1
2.9 fold | B2
1.5 fold | B3
3.9 fold | B4
4 fold | B5
2.9 fold | B6
4.6 fold | B7
5 fold | B8
3.5 fold | B9
3.8 fold | B10
3.4 fold | B11
2.6 fold | B12
5.8 fold | B13
2.4 fold | B14

Molecular target: T7, human FcγRIIaH extracellular domain …
Experiment: SPR (BIACORE); KD of SG1 / KD of variant

KD fold (SG1 = 1) | Binder
2.6 fold | B1
2.4 fold | B2
1.4 fold | B3
4.1 fold | B4
3.1 fold | B5
1.6 fold | B6
3.1 fold | B7
6.3 fold | B8
3.3 fold | B9
3.6 fold | B10
2.9 fold | B11
1.6 fold | B12
6.3 fold | B13
2 fold | B14
